The record followed here is paper PMC6997106, “The Trp triad within the V-domain of the receptor for advanced glycation end products modulates folding, stability and ligand binding” (Bioscience Reports, 2020).

B1: RAGE V-domain (residues 23-132), wild type (domain or fragment, human, UniProt Q15109 23-132, looked up)
chain: AQNITARIGEPLVLKCKGAPKKPPQRLEWKLNTGRTEAWKVLSPQGGGPWDSVARVLPNGSLFLPAVGIQDEGIFRCQAMNRNGKETKSNYRVRVYQIPGKPEIVDSASE
notes: receptor for advanced glycation end products (RAGE), human, V-domain, residues 23-132 of uniprot Q15109; Cloned into pET15b by NcoI and XhoI; also called WT; wild-type V-domain; source: E. coli Shuffle T7 Express, purified (HisTrap HP, HiTrap SP FF cation exchange)
B2: RAGE V-domain (residues 23-132) W72A (domain or fragment, human, UniProt Q15109 23-132, looked up)
chain: AQNITARIGEPLVLKCKGAPKKPPQRLEWKLNTGRTEAWKVLSPQGGGPADSVARVLPNGSLFLPAVGIQDEGIFRCQAMNRNGKETKSNYRVRVYQIPGKPEIVDSASE
notes: RAGE, human, V-domain, residues 23-132 of uniprot Q15109; Same construct as m1 with the mutation; source: E. coli Shuffle T7 Express, purified (HisTrap HP, HiTrap SP FF cation exchange)
B4: Recombinant human S100B (natural protein)
chain: MSELEKAMVALIDVFHQYSGREGDKHKLKKSELKELINNELSHFLEEIKEQEVVDKVMETLDNDGDGECDFQEFMAFVAMVTTACHEFFEHE
notes: S100B, human, uniprot P04271; Homodimer in the crystal structure 5D7F; also called calcium-loaded S100B
B5: RAGE V-domain (residues 23-132) W61A (domain or fragment, human, UniProt Q15109 23-132, looked up)
chain: AQNITARIGEPLVLKCKGAPKKPPQRLEWKLNTGRTEAAKVLSPQGGGPWDSVARVLPNGSLFLPAVGIQDEGIFRCQAMNRNGKETKSNYRVRVYQIPGKPEIVDSASE
notes: as for B2

Data set [1] concerns the target B4. Put plainly: tryptophan fluorescence lifetime; 1 µM V-domain, with S100B in the presence of 2 mM calcium; excitation 280 nm; amplitude weighted average lifetime τm. To be noted: both partners purified.
Data set [2] deals with B1. Put plainly: fluorescence polarisation; 1 µM S100B-FITC in 50 mM Tris, pH 7.0, 2 mM CaCl2 titrated with V-domain stock solutions; 1:1 RAGE:S100B model; apparent. To be noted: both partners purified.
The target of data set [3] is T1, RAGE V-domain (residues 23-132) W51A (human, UniProt Q15109 23-132, W51A).
T1 construct: RAGE, human, V-domain, residues 23-132 of uniprot Q15109; Same construct as m1 with the mutation; source: E. coli Shuffle T7 Express, purified (HisTrap HP, HiTrap SP FF cation exchange)
The data set is described as above. The note with it: both partners purified.

Data set [4] concerns the target B5. The data set is described as above. The note with it: both partners purified.
For data set [5], the target named is B2. Described as above. The note with it: both partners purified.
Data set [6] concerns the target T2, RAGE V-domain (residues 23-132) W51A/W61A (human, UniProt Q15109 23-132, W51A | W61A).
T2 construct: RAGE, human, V-domain, residues 23-132 of uniprot Q15109; Same construct as m1 with the mutations; also called W51/W61; source: E. coli Shuffle T7 Express, purified (HisTrap HP, HiTrap SP FF cation exchange)
The data set is described as above. The note with it: both partners purified.

The target in data set [7] is T3, RAGE V-domain (residues 23-132) W51A/W72A (human, UniProt Q15109 23-132, W51A | W72A).
T3 construct: RAGE, human, V-domain, residues 23-132 of uniprot Q15109; Same construct as m1 with the mutations; source: E. coli Shuffle T7 Express, purified (HisTrap HP, HiTrap SP FF cation exchange)
Described as above. The note with it: both partners purified.

The target of data set [8] is T4, RAGE V-domain (residues 23-132) W61A/W72A (human, UniProt Q15109 23-132, W61A | W72A).
T4 construct: RAGE, human, V-domain, residues 23-132 of uniprot Q15109; Same construct as m1 with the mutations; source: E. coli Shuffle T7 Express, purified (HisTrap HP, HiTrap SP FF cation exchange)
The description is as above. The note with it: both partners purified.

Data set [9] has as its target B1. Put plainly: steady-state tryptophan fluorescence; emission spectra of V-domains alone and as V-domain:S100B complexes; excitation at 295 nm. To be noted: both partners purified.
The target of data set [10] is T1, RAGE V-domain (residues 23-132) W51A. The data set is described as above. To be noted: both partners purified.
The target of data set [11] is B5. The description is as above. To be noted: both partners purified.
The target in data set [12] is B2. Described as above. To be noted: both partners purified.
Data set [13] concerns the target T2, RAGE V-domain (residues 23-132) …. The data set is described as above. To be noted: both partners purified.
The target of data set [14] is T3, RAGE V-domain (residues 23-132) …. Described as above. The note with it: both partners purified.
Data set [15] has as its target T4, RAGE V-domain (residues 23-132) …. Described as above. To be noted: both partners purified.
Data set [16] deals with the molecule itself. Put plainly: crystal structure; 2 mM S100B with 3 mM peptide W72, CaCl2 present; sitting drop, 0.1 M Na cacodylate pH 6.8, 22% PEG 3350, 5 mM CaCl2, 20°C.
Data set [17] has as its target B4. The description is as above. The note with it: both partners purified.

On to B1, for which the “Δτm (change of the average Trp fluorescence lifetime with S100B)” value in the data set with Recombinant human S100B [1] was -0.83 ns.
B2: the “Δτm (change of the average Trp fluorescence lifetime with S100B)” value in the data set with Recombinant human S100B [1] was -1 ns.

B3: FITC-labeled recombinant human S100B (natural protein)
chain: MSELEKAMVALIDVFHQYSGREGDKHKLKKSELKELINNELSHFLEEIKEQEVVDKVMETLDNDGDGECDFQEFMAFVAMVTTACHEFFEHE
modifications: fluorescein (FITC labeling kit, 5-fold excess of FITC over protein; sites not stated)
notes: S100B, human, uniprot P04271; the titrations were fitted with a 1:1 RAGE:S100B model; also called S100B-FITC; FITC-labeled S100B; source: labeled with an FITC labeling kit (Pierce/Thermo Fisher 53027)
As for B3, the Kd in data set [2] amounted to 2700 ± 300 nM; in data set [3], 480 ± 60 nM; in [4], 870 ± 40 nM; in data set [5] it was 1120 ± 1010 nM; in [6], 660 ± 120 nM; in data set [7] it was 460 ± 320 nM. The Kd in data set [8] came out at 370 ± 90 nM.
Regarding B4, the binding result in [9], in data set [10], in data set [11], in data set [12], in data set [13] and in data set [14] was “binds” in each case. Further, the binding result in data set [15] and in data set [16] was “binds” throughout.
Regarding B5, the “Δτm (change of the average Trp fluorescence lifetime with S100B)” value with Recombinant human S100B [1] was -0.8 ns.

B6: RAGE-derived peptide W72 (RAGE residues 65-79) (peptide)
peptide: Ac-SPQGGGPWDSVARVL-NH2
notes: RAGE, human, residues 65-79; also called W72 peptide; source: synthetic peptide
With B6, the binding result with Recombinant human S100B [17] is recorded as “binds”.
